Reference: patent publication US6632626 (dated 2003)

Key:
[1] = biological target: T1, rat brain farnesyl:protein transferase (rat, UniProt Q04631 2-377; Q02293 1-437); assay: cell-based or functional assay
[2] = biological target: T1, rat brain farnesyl:protein transferase; assay: cell-based or functional assay; remark: listed apart in the source

| Binder | Concentration for 50% Inhibition (farnesyl transfer to p21^H-ras) [1] [µM] | concentration giving 50% inhibition (farnesyl transfer to p21^H-ras) [2] [µM] |
| --- | --- | --- |
| CAIL | 100 | – |
| CVIE [CVIM with glutamic acid at the X position] | – | > 40 |

Now from value to binder:

| Concentration for 50% Inhibition (farnesyl transfer to p21^H-ras) [1] [µM] | concentration giving 50% inhibition (farnesyl transfer to p21^H-ras) [2] [µM] | Binder |
| --- | --- | --- |
| – | > 40 | CVIG [CVIM with glycine at the X position] |
| – | > 40 | CVIK [CVIM with lysine at the X position] |
